Data from publication PMC10107544, “Selecting Better Biocatalysts by Complementing Recoded Bacteria” (Angewandte Chemie (International Ed. in English), 2022).

Columns and labels:
Format in all cases: biochemical, Sinorhizobium meliloti
Conditions in all cases: free enzyme; kinetic pH and metal not given
[1] = substrate: NC(=O)N[C@@H](Cc1ccc(O)c([N+](=O)[O-])c1)C(=O)O; experiment: HPLC saturation kinetics, Michaelis-Menten fit
Source text: HPLC saturation kinetics, Michaelis-Menten fit on […]

[2] = substrate: NC(=O)N[C@@H](Cc1ccc(O)c(I)c1)C(=O)O; experiment: saturation kinetics, Michaelis-Menten fit
Source text: (§1) saturation kinetics, Michaelis-Menten fit on […]

[3] = substrate: NC(=O)N[C@@H](Cc1ccc(O)c([N+](=O)[O-])c1)C(=O)O; experiment: saturation kinetics, Michaelis-Menten fit
Source text: as §1

| Protein | Km [1] | kcat [1] | kcat/Km [1] | Km [2] | kcat [2] | kcat/Km [2] | Km [3] | kcat [3] | kcat/Km [3] |
| --- | --- | --- | --- | --- | --- | --- | --- | --- | --- |
| SmLcar (Sinorhizobium meliloti) (protein, recombinant, produced from plasmid and purified; bivalent metal-dependent) MAAPGENRRVNADRLWDSLMEMAKIGPGVAGGNNRQTLTDADGEGRRLFQSWCEEAGLSMGVDKMGTMFLTRPGTDPDALPVHIGSHLDTQPTGGKFDGVLGVLSGLEAVRTMNDLGIKTKHPIVVTNWTNEEGARFAPAMLASGVFAGVHTLEYAYARKDPEGKSFGDELKRIGWLGDEEVGARKMHAYFEYHIEQGPILEAENKQIGVVTHCQGLWWLEFTLTGREAHTGSTPMDMRVNAGLAMARILEMVQTVAMENQPGAVGGVGQMFFSPNSRNVLPGKVVFTVDIRSPDQAKLDGMRARIEAEAPKICERLGVGCSIEAVGHFDPVTFDPKLVETVRGAAEKLGYSHMNLVSGAGHDACWAAKVAPTTMIMCPCVGGLSHNEAEDISREWAAAGADVLFHAVLETAEIVE | 2.98 (0.87) mM | 0.000105 ± 1.01e-05 s⁻¹ | 0.0354 ± 0.00977 M⁻¹ s⁻¹ | 13.8 (7.91) mM | 6.92e-05 ± 2.09e-05 s⁻¹ | 0.005 ± 0.00315 M⁻¹ s⁻¹ | – | – | – |
| SmLcar (Sinorhizobium meliloti; F329Y/L217G) (protein, recombinant, produced from plasmid and purified; bivalent metal-dependent) MAAPGENRRVNADRLWDSLMEMAKIGPGVAGGNNRQTLTDADGEGRRLFQSWCEEAGLSMGVDKMGTMFLTRPGTDPDALPVHIGSHLDTQPTGGKFDGVLGVLSGLEAVRTMNDLGIKTKHPIVVTNWTNEEGARFAPAMLASGVFAGVHTLEYAYARKDPEGKSFGDELKRIGWLGDEEVGARKMHAYFEYHIEQGPILEAENKQIGVVTHCQGGWWLEFTLTGREAHTGSTPMDMRVNAGLAMARILEMVQTVAMENQPGAVGGVGQMFFSPNSRNVLPGKVVFTVDIRSPDQAKLDGMRARIEAEAPKICERLGVGCSIEAVGHYDPVTFDPKLVETVRGAAEKLGYSHMNLVSGAGHDACWAAKVAPTTMIMCPCVGGLSHNEAEDISREWAAAGADVLFHAVLETAEIVE | – | – | – | 1.45 (0.16) mM | 0.231 s⁻¹ | 159 M⁻¹ s⁻¹ | 5.30 (0.88) mM | 0.78 s⁻¹ | 148 M⁻¹ s⁻¹ |
| SmLcar (Sinorhizobium meliloti; L217G) (protein, recombinant, produced from plasmid and purified; bivalent metal-dependent) MAAPGENRRVNADRLWDSLMEMAKIGPGVAGGNNRQTLTDADGEGRRLFQSWCEEAGLSMGVDKMGTMFLTRPGTDPDALPVHIGSHLDTQPTGGKFDGVLGVLSGLEAVRTMNDLGIKTKHPIVVTNWTNEEGARFAPAMLASGVFAGVHTLEYAYARKDPEGKSFGDELKRIGWLGDEEVGARKMHAYFEYHIEQGPILEAENKQIGVVTHCQGGWWLEFTLTGREAHTGSTPMDMRVNAGLAMARILEMVQTVAMENQPGAVGGVGQMFFSPNSRNVLPGKVVFTVDIRSPDQAKLDGMRARIEAEAPKICERLGVGCSIEAVGHFDPVTFDPKLVETVRGAAEKLGYSHMNLVSGAGHDACWAAKVAPTTMIMCPCVGGLSHNEAEDISREWAAAGADVLFHAVLETAEIVE | – | – | – | 2.58 (0.46) mM | 0.232 s⁻¹ | 89.9 M⁻¹ s⁻¹ | 8.91 (2.81) mM | 0.0929 ± 0.0136 s⁻¹ | 10.4 M⁻¹ s⁻¹ |
| SmLcar (Sinorhizobium meliloti; F329C/L217G) (protein, recombinant, produced from plasmid and purified; bivalent metal-dependent) MAAPGENRRVNADRLWDSLMEMAKIGPGVAGGNNRQTLTDADGEGRRLFQSWCEEAGLSMGVDKMGTMFLTRPGTDPDALPVHIGSHLDTQPTGGKFDGVLGVLSGLEAVRTMNDLGIKTKHPIVVTNWTNEEGARFAPAMLASGVFAGVHTLEYAYARKDPEGKSFGDELKRIGWLGDEEVGARKMHAYFEYHIEQGPILEAENKQIGVVTHCQGGWWLEFTLTGREAHTGSTPMDMRVNAGLAMARILEMVQTVAMENQPGAVGGVGQMFFSPNSRNVLPGKVVFTVDIRSPDQAKLDGMRARIEAEAPKICERLGVGCSIEAVGHCDPVTFDPKLVETVRGAAEKLGYSHMNLVSGAGHDACWAAKVAPTTMIMCPCVGGLSHNEAEDISREWAAAGADVLFHAVLETAEIVE | – | – | – | 5.71 (1.14) mM | 4.84 s⁻¹ | 849 M⁻¹ s⁻¹ | 2.92 (0.95) mM | 0.32 s⁻¹ | 108 M⁻¹ s⁻¹ |
